Laboratory results taken from article PMC4035259, “Structural Studies of an Anti-Inflammatory Lectin from Canavalia boliviana Seeds in Complex with Dimannosides” (PLoS ONE, 2014).

Tests used:
[1] = target: Concanavalin A (Canavalia ensiformis); test: SAXS; in solution, 1, 5 and 10 mg/ml, buffers from pH 3 to pH 9 (JBS Solubility Kit); average molecular weight at each pH from I(0), BSA as size standard; dimer-tetramer equilibrium
[2] = target: the molecule itself; test: as above

Molecule	stoichiometry N [1]	stoichiometry N [2]
Concanavalin A (natural protein)	4	
Canavalia boliviana lectin (natural protein, UniProt A0A023GPI8 1-237, looked up, Lectin from Canavalia boliviana seeds, 237 amino acids (full-length alpha-chain, 25,572 Da); the preparation is a combination of the alpha-chain and its fragments, beta-chain (residues 1-118) and gamma-chain (residues 119-237); also called Cbol; CboL; source: purified from Canavalia boliviana seeds (according to Moura et al., 2009)) ADTIVAVELDTYPNTDIGDPSYPHIGIDIKSVRSKKTAKWNMQNGKVGTAHIIYNSVGKRLSAVVSYPNGDSATVSYDVDLDNVLPEWVRVGLSATTGLYKETNTILSWSFTSKLKSNSTHETNALHFMFNQFSKDQKDLILQGDATTGRDGNLELTRVSSNGSPQGSSVGRALFYAPVHIWESSAVVASFDATFTFLIKSSDSHPADGIAFFISNIDSSIPSGSTGRLLGLFPDAN		4
